Values of other authors in patent US20200069786A1, “COMPOSITION AND PROCESS FOR PREPARING VACCINE” (TREOS BIO ZRT., priority 2018, published 2020).
Read-outs that look alike come from different tables or passages of the source.

Test system: TSA
[1] = TSA expression rate in BLADDER cancer
[2] = TSA expression rate in Esophageal
[3] = TSA expression rate in HEAD and NECK
[4] = TSA expression rate in MELANOMA
[5] = TSA expression rate in PEDIATRIC
[6] = TSA expression rate in PROSTATE cancer
[7] = TSA expression rate in GASTRIC cancer
[8] = TSA expression rate in LEUKEMIAS
[9] = TSA expression rate in LUNG cancer
[10] = TSA expression rate in Cervical cancer

B1: MAGE-A6 (protein, UniProt P43360 1-314, looked up)
Melanoma-associated antigen 6: MPLEQRSQHCKPEEGLEARGEALGLVGAQAPATEEQEAASSSSTLVEVTLGEVPAAESPDPPQSPQGASSLPTTMNYPLWSQSYEDSSNQEEEGPSTFPDLESEFQAALSRKVAKLVHFLLLKYRAREPVTKAEMLGSVVGNWQYFFPVIFSKASDSLQLVFGIELMEVDPIGHVYIFATCLGLSYDGLLGDNQIMPKTGFLIIILAIIAKEGDCAPEEKIWEELSVLEVFEGREDSIFGDPKKLLTQYFVQENYLEYRQVPGSDPACYEFLWGPRALIETSYVKVLHHMVKISGGPRISYPLLHEWALREGEE
TSA Expression Rate (ER) (BREAST): 15% | TSA Expression Rate (ER) (HCC): 36% | TSA Expression Rate (ER) (LUNG): 51% | Expression Rate (ER) % [1]: 25% | Expression Rate (ER) % (TSA expression rate in CRC): 22% | Expression Rate (ER) % [2]: 68% | Expression Rate (ER) % [3]: 58% | Expression Rate (ER) % (TSA expression rate in Kidney): 0% | Expression Rate (ER) % [4]: 65% | Expression Rate (ER) % [5]: 80% | Expression Rate (ER) % [6]: 23%

B2: TSPY1 (protein, UniProt Q01534 1-308, looked up)
Testis-specific Y-encoded …: MRPEGSLTYRVPERLRQGFCGVGRAAQALVCASAKEGTAFRMEAVQEGAAGVESEQAALGEEAVLLLDDIMAEVEVVAEEEGLVERREEAQRAQQAVPGPGPMTPESAPEELLAVQVELEPVNAQARKAFSRQREKMERRRKPHLDRRGAVIQSVPGFWANVIANHPQMSALITDEDEDMLSYMVSLEVGEEKHPVHLCKIMLFFRSNPYFQNKVITKEYLVNITEYRASHSTPIEWYPDYEVEAYRRRHHNSSLNFFNWFSDHNFAGSNKIAEILCKDLWRNPLQYYKRMKPPEEGTETSGDSQLLS
TSA Expression Rate (ER) (HCC): 35% | Expression Rate (ER) % [1]: 0% | Expression Rate (ER) % [7]: 0% | Expression Rate (ER) % (TSA expression rate in Kidney): 5% | Expression Rate (ER) % [8]: 12% | Expression Rate (ER) % [9]: 0% | Expression Rate (ER) % (TSA expression rate in LYMPHOMAS): 0%

B3: MAGE-A12 (protein, UniProt P43365 1-314, looked up)
Melanoma-associated antigen 12: MPLEQRSQHCKPEEGLEAQGEALGLVGAQAPATEEQETASSSSTLVEVTLREVPAAESPSPPHSPQGASTLPTTINYTLWSQSDEGSSNEEQEGPSTFPDLETSFQVALSRKMAELVHFLLLKYRAREPFTKAEMLGSVIRNFQDFFPVIFSKASEYLQLVFGIEVVEVVRIGHLYILVTCLGLSYDGLLGDNQIVPKTGLLIIVLAIIAKEGDCAPEEKIWEELSVLEASDGREDSVFAHPRKLLTQDLVQENYLEYRQVPGSDPACYEFLWGPRALVETSYVKVLHHLLKISGGPHISYPPLHEWAFREGEE
TSA Expression Rate (ER) (BREAST): 12% | TSA Expression Rate (ER) (HCC): 36% | TSA Expression Rate (ER) (LUNG): 31% | Expression Rate (ER) % [1]: 29% | Expression Rate (ER) % (TSA expression rate in CRC): 6% | Expression Rate (ER) % [2]: 26% | Expression Rate (ER) % [3]: 34% | Expression Rate (ER) % (TSA expression rate in Kidney): 4% | Expression Rate (ER) % [8]: 21% | Expression Rate (ER) % [4]: 49% | Expression Rate (ER) % [5]: 41% | Expression Rate (ER) % [6]: 5%

B4: NY-BR-1 (protein, UniProt Q9BXX3 1-1397, looked up)
Ankyrin repeat …: MEEISAAAVKVVPGPERPSPFSQLVYTSNDSYIVHSGDLRKIHKAASRGQVRKLEKMTKRKKTINLNIQDAQKRTALHWACVNGHEEVVTFLVDRKCQLDVLDGEHRTPLMKALQCHQEACANILIDSGADINLVDVYGNTALHYAVYSEILSVVAKLLSHGAVIEVHNKASLTPLLLSITKRSEQIVEFLLIKNANANAVNKYKCTALMLAVCHGSSEIVGMLLQQNVDVFAADICGVTAEHYAVTCGFHHIHEQIMEYIRKLSKNHQNTNPEGTSAGTPDEAAPLAERTPDTAESLVEKTPDEAAPLVERTPDTAESLVEKTPDEAASLVEGTSDKIQCLEKATSGKFEQSAEETPREITSPAKETSEKFTWPAKGRPRKIAWEKKEDTPREIMSPAKETSEKFTWAAKGRPRKIAWEKKETPVKTGCVARVTSNKTKVLEKGRSKMIACPTKESSTKASANDQRFPSESKQEEDEEYSCDSRSLFESSAKIQVCIPESIYQKVMEINREVEEPPKKPSAFKPAIEMQNSVPNKAFELKNEQTLRADPMFPPESKQKDYEENSWDSESLCETVSQKDVCLPKATHQKEIDKINGKLEESPNKDGLLKATCGMKVSIPTKALELKDMQTFKAEPPGKPSAFEPATEMQKSVPNKALELKNEQTLRADEILPSESKQKDYEENSWDTESLCETVSQKDVCLPKAAHQKEIDKINGKLEGSPVKDGLLKANCGMKVSIPTKALELMDMQTFKAEPPEKPSAFEPAIEMQKSVPNKALELKNEQTLRADEILPSESKQKDYEESSWDSESLCETVSQKDVCLPKATHQKEIDKINGKLEESPDNDGFLKAPCRMKVSIPTKALELMDMQTFKAEPPEKPSAFEPAIEMQKSVPNKALELKNEQTLRADQMFPSESKQKKVEENSWDSESLRETVSQKDVCVPKATHQKEMDKISGKLEDSTSLSKILDTVHSCERARELQKDHCEQRTGKMEQMKKKFCVLKKKLSEAKEIKSQLENQKVKWEQELCSVRLTLNQEEEKRRNADILNEKIREELGRIEEQHRKELEVKQQLEQALRIQDIELKSVESNLNQVSHTHENENYLLHENCMLKKEIAMLKLEIATLKHQYQEKENKYFEDIKILKEKNAELQMTLKLKEESLTKRASQYSGQLKVLIAENTMLTSKLKEKQDKEILEAEIESHHPRLASAVQDHDQIVTSRKSQEPAFHIAGDACLQRKMNVDVSSTIYNNEVLHQPLSEAQRKSKSLKINLNYAGDALRENTLVSEHAQRDQRETQCQMKEAEHMYQNEQDNVNKHTEQQESLDQKLFQLQSKNMWLQQQLVHAHKKADNKSKITIDIHFLERKMQHHLLKEKNEEIFNYNNHLKNRIYQYEKEKAETENS
TSA Expression Rate (ER) (BREAST): 47% | Expression Rate (ER) % [3]: 2%

B5: CAGE1 (protein, UniProt Q8TC20 1-777, looked up)
Cancer-associated gene 1 …: MNKDYQKFWSSPSDPVHFEVDTSHEKVESMSESDTMNVSNLSQGVMLSHSPICMETTGTTCDLPQNEIKNFERENEYESTLCEDAYGTLDNLLNDNNIENYSTNALIQPVDTISISSLRQFETVCKFHWVEAFDDEMTEKPEFQSQVYNYAKDNNIKQDSFKEENPMETSVSANTDQLGNEYFRQPPPRSPPLIHCSGEMLKFTEKSLAKSIAKESALNPSQPPSFLCKTAVPSKEIQNYGEIPEMSVSYEKEVTAEGVERPEIVSTWSSAGISWRSEACRENCEMPDWEQSAESLQPVQEDMALNEVLQKLKHTNRKQEVRIQELQCSNLYLEKRVKELQMKITKQQVFIDVINKLKENVEELIEDKYKIILEKNDTKKTLQNLEEVLANTQKHLQESRNDKEMLQLQFKKIKANYVCLQERYMTEMQQKNKSVSQYLEMDKTLSKKEEEVERLQQLKKELEKATASALDLLKREKEAQEQEFLSLQEEFQKLEKENLEERQKLKSRLEKLLTQVRNLQFMSENERTKNIKLQQQINEVKNENAKLKQQVARSEEQNYVPKFETAQLKDQLEEVLKSDITKDTKTTHSNLLPDCSPCEERLNPADIKRASQLASKMHSLLALMVGLLTCQDIINSDAEHFKESEKVSDIMLQKLKSLHLKKKTLDKEVIDCDSDEAKSIRDVPTLLGAKLDKYHSLNEELDFLVTSYEEIIECADQRLAISHSQIAHLEERNKHLEDLIRKPREKARKPRSKSLENHPKSMTMMPALFKENRNDLD
TSA Expression Rate (ER) (HCC): 39% | Expression Rate (ER) % (TSA expression rate in CRC): 74% | Expression Rate (ER) % [10]: 98% | Expression Rate (ER) % [7]: 77% | Expression Rate (ER) % [9]: 14%

B6: FATE1 (protein, UniProt Q969F0 1-183, looked up)
Fetal and adult …: MAGGPPNTKAEMEMSLAEELNHGRQGENQEHLVIAEMMELGSRSRGASQKKQKLEQKAAGSASAKRVWNMTATRPKKMGSQLPKPRMLRESGHGDAHLQEYAGNFQGIRFHYDRNPGTDAVAQTSLEEFNVLEMEVMRRQLYAVNRRLRALEEQGATWRHRETLIIAVLVSASIANLWLWMNQ
TSA Expression Rate (ER) (HCC): 49% | Expression Rate (ER) % (TSA expression rate in CRC): 21% | Expression Rate (ER) % [7]: 2% | Expression Rate (ER) % [9]: 0%

B7: GASZ (protein, UniProt Q8WWH4 1-475, looked up)
Ankyrin repeat, SAM and basic …: MAASALRGLPVAGGGESSESEDDGWEIGYLDRTSQKLKRLLPIEEKKEKFKKAMTIGDVSLVQELLDSGISVDSNFQYGWTPLMYAASVANAELVRVLLDRGANASFEKDKQSILITACSAHGSEEQILKCVELLLSRNADPNVACRRLMTPIMYAARDGHTQVVALLVAHGAEVNTQDENGYTALTWAARQGHKNIVLKLLELGANKMLQTKDGKMPSEIAKRNKHHEIFNLLSFTLNPLEGKLQQLTKEDTICKILTTDSDREKDHIFSSYTAFGDLEVFLHGLGLEHMTDLLKERDITLRHLLTMREDEFTKNGITSKDQQKILAALKELQVEEIQFGELSEETKLEISGDEFLNFLLKLNKQCGHLITAVQNVITELPVNSQKITLEWASPQNFTSVCEELVNNVEDLSEKVCKLKDLIQKLQNERENDPTHIQLREEVSTWNSRILKRTAITICGFGFLLFICKLTFQRK
TSA Expression Rate (ER) (LUNG): 29% | TSA Expression Rate (ER) (THYROID): 13% | Expression Rate (ER) % (TSA expression rate in CRC): 22% | Expression Rate (ER) % [10]: 50% | Expression Rate (ER) % [7]: 0% | Expression Rate (ER) % [4]: 17%

B8: MAGE-A8 (protein, UniProt P43361 1-318, looked up)
Melanoma-associated antigen 8: MLLGQKSQRYKAEEGLQAQGEAPGLMDVQIPTAEEQKAASSSSTLIMGTLEEVTDSGSPSPPQSPEGASSSLTVTDSTLWSQSDEGSSSNEEEGPSTSPDPAHLESLFREALDEKVAELVRFLLRKYQIKEPVTKAEMLESVIKNYKNHFPDIFSKASECMQVIFGIDVKEVDPAGHSYILVTCLGLSYDGLLGDDQSTPKTGLLIIVLGMILMEGSRAPEEAIWEALSVMGLYDGREHSVYWKLRKLLTQEWVQENYLEYRQAPGSDPVRYEFLWGPRALAETSYVKVLEHVVRVNARVRISYPSLHEEALGEEKGV
TSA Expression Rate (ER) (HCC): 45% | Expression Rate (ER) % [1]: 57% | Expression Rate (ER) % (TSA expression rate in CRC): 44% | Expression Rate (ER) % [4]: 10%

B9: IGFS11 (protein, UniProt Q5DX21 23-431, looked up)
Immunoglobulin superfamily …: LEVSESPGSIQVARGQPAVLPCTFTTSAALINLNVIWMVTPLSNANQPEQVILYQGGQMFDGAPRFHGRVGFTGTMPATNVSIFINNTQLSDTGTYQCLVNNLPDIGGRNIGVTGLTVLVPPSAPHCQIQGSQDIGSDVILLCSSEEGIPRPTYLWEKLDNTLKLPPTATQDQVQGTVTIRNISALSSGLYQCVASNAIGTSTCLLDLQVISPQPRNIGLIAGAIGTGAVIIIFCIALILGAFFYWRSKNKEEEEEEIPNEIREDDLPPKCSSAKAFHTEISSSDNNTLTSSNAYNSRYWSNNPKVHRNTESVSHFSDLGQSFSFHSGNANIPSIYANGTHLVPGQHKTLVVTANRGSSPQVMSRSNGSVSRKPRPPHTHSYTISHATLERIGAVPVMVPAQSRAGSLV
TSA Expression Rate (ER) (HCC): 60% | Expression Rate (ER) % [7]: 88%
